# Assays:
# [1] = target: VgrG1 (from pRSFDuet-1::vgrG1::eagT6) (Pseudomonas aeruginosa); test: cryo-EM structure
# [2] = target: Tse6 (full-length, C-terminal His8 tag) (Pseudomonas aeruginosa, UniProt Q9I739 1-430); test: cryo-EM structure
# Sequence of Tse6 (full-length, C-terminal His8 tag) (Q9I739 whole entry): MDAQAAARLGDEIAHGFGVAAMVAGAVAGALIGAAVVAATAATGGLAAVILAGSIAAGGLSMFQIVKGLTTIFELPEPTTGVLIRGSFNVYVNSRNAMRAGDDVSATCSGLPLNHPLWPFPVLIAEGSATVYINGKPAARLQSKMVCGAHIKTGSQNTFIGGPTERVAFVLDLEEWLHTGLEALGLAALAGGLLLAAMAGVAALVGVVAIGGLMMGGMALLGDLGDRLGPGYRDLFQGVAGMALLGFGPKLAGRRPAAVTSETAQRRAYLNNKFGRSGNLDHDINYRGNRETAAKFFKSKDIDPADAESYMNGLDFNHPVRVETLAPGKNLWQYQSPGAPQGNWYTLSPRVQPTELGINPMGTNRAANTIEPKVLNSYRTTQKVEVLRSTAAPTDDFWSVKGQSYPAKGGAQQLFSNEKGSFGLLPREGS
Molecule,stoichiometry N [1],binding result [2]
VgrG1 (from pRSFDuet-1::vgrG1::eagT6) (natural protein),3,
EagT6 (from pRSFDuet-1::vgrG1::eagT6) (natural protein) MTLYRLHEADLEIPDAWQDQSINIFKLPASGPAREASFVISRDASQGDAPFADYVARQLENAEKQLPGFKLHKRWDINIHGHAAVLLDYQWQREGRDLMLRQVFIERRPAVLITTLTTTPADLPHHEPAWKQAMQTLVPRPTPS,,binds

# From article PMC6488228 (Nature microbiology, 2018)
